These results are taken from patent US20090093002A1.

This assay addresses biotinylated complete Aβ1-42 peptide (Bachem) (UniProt P05067). Description: ELISA on biotinylated complete Aβ1-42 peptide.

Chain of biotinylated complete Aβ1-42 peptide (Bachem) (P05067 672-713 limits assumed): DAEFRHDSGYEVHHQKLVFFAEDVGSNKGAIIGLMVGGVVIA

Control IgG (antibody) had an O.D of 0.196 O.D.
